Source: patent publication US10501734B2, “Compositions and methods of use thereof for making polypeptides with many instances of nonstandard amino acids” (Yale University, priority 2014, dated 2019)
Like-named read-outs stand apart in the source and are kept apart here.

B1: pAcFRS.1: pAcFRS variant A167D, SEQ ID NO: 2 (protein)
chain: MDEFEMIKRNTSEIISEEELREVLKKDEKSALIGFEPSGKIHLGHYLQIKKMIDLQNAGFDIIILLADLHAYLNQKGELDEIRKIGDYNKKVFEAMGLKAKYVYGSEFQLDKDYTLNVYRLALKTTLKRARRSMELIAREDENPKVAEVIYPIMQVNGCHYRGVDVDVGGMEQRKIHMLARELLPKKVVCIHNPVLTGLDGEGKMSSSKGNFIAVDDSPEEIRAKIKKAYCPAGVVEGNPIMEIAKYFLEYPLTIKRPEKFGGDLTVNSYEELESLFKNKELHPMRLKNAVAEELIKILEPIRKRL
B2: pAcFRS.t2: pAcFRS variant R257C, F261E, SEQ ID NO: 4 (protein)
chain: MDEFEMIKRNTSEIISEEELREVLKKDEKSALIGFEPSGKIHLGHYLQIKKMIDLQNAGFDIIILLADLHAYLNQKGELDEIRKIGDYNKKVFEAMGLKAKYVYGSEFQLDKDYTLNVYRLALKTTLKRARRSMELIAREDENPKVAEVIYPIMQVNGCHYRGVDVAVGGMEQRKIHMLARELLPKKVVCIHNPVLTGLDGEGKMSSSKGNFIAVDDSPEEIRAKIKKAYCPAGVVEGNPIMEIAKYFLEYPLTIKCPEKEGGDLTVNSYEELESLFKNKELHPMRLKNAVAEELIKILEPIRKRL
B3: WTmjYRS: wild-type M. jannaschii TyrRS, the parent AARS of pAcFRS (protein, UniProt Q57834 1-306, looked up)
Tyrosine--tRNA ligase: MDEFEMIKRNTSEIISEEELREVLKKDEKSAYIGFEPSGKIHLGHYLQIKKMIDLQNAGFDIIILLADLHAYLNQKGELDEIRKIGDYNKKVFEAMGLKAKYVYGSEFQLDKDYTLNVYRLALKTTLKRARRSMELIAREDENPKVAEVIYPIMQVNDIHYLGVDVAVGGMEQRKIHMLARELLPKKVVCIHNPVLTGLDGEGKMSSSKGNFIAVDDSPEEIRAKIKKAYCPAGVVEGNPIMEIAKYFLEYPLTIKRPEKFGGDLTVNSYEELESLFKNKELHPMDLKNAVAEELIKILEPIRKRL
B4: pAcFRS.t1: pAcFRS variant R257G, SEQ ID NO: 3 (protein)
chain: MDEFEMIKRNTSEIISEEELREVLKKDEKSALIGFEPSGKIHLGHYLQIKKMIDLQNAGFDIIILLADLHAYLNQKGELDEIRKIGDYNKKVFEAMGLKAKYVYGSEFQLDKDYTLNVYRLALKTTLKRARRSMELIAREDENPKVAEVIYPIMQVNGCHYRGVDVAVGGMEQRKIHMLARELLPKKVVCIHNPVLTGLDGEGKMSSSKGNFIAVDDSPEEIRAKIKKAYCPAGVVEGNPIMEIAKYFLEYPLTIKGPEKFGGDLTVNSYEELESLFKNKELHPMRLKNAVAEELIKILEPIRKRL

Assays:
GFP(3TAG) [1] = assay type: cell-based, E. coli; conditions: chromosomally integrated AARS; pAcF
Procedure: (§1) Liquid cell cultures of strains harboring chromosomally integrated OTSs and GFP reporter plasmids were inoculated from frozen stocks and grown to confluence overnight. Cultures were then inoculated at 1:20 dilution in LBmin media supplemented with 30 μg/ml kanamycin. Strains were inoculated by addition of 1:20 confluent cell culture (grown overnight) and allowed to grow at 34° C. to an OD600 of 0.5-0.8 in a shaking plate incubator at 650 r.p.m (˜3 h). AARS expression was then induced by the addition of 0.2% arabinose, GFP expression was induced by the addition of 60 ng/ul anhydrotetracycline, and the appropriate nsAA was added to a concentration of 1 mM. Cells were incubated at 34° C. for an additional 16 h. Liquid cell cultures of strains harboring plasmid-based OTSs and GFP or ELP-GFP reporter plasmids were inoculated from frozen stocks and grown to confluence overnight. Cultures were then inoculated at 1:20 dilution in 2×YT media supplemented with 30 μg/ml kanamycin and 20 μg/ml chloramphenicol. […] Cells were allowed to grow at 34° C. to an OD600 of 0.5-0.8 in a shaking plate incubator at 650 r.p.m (˜3 h), reporter protein expression was then induced by the addition of 60 ng/ul anhydrotetracycline, and cells were incubated at 34° C. for an additional 16 h.
(§2) For 384 well plate-based assays, fluorescence and OD600 were directly measured following expression. For 96 well plate-based assays, cells were centrifuged at 4,000 g for 4 min. Supernatant medium was removed and cells were resuspended in PBS. This process was repeated twice with PBS. GFP fluorescence was measured on a Biotek spectrophotometric plate reader using excitation and emission wavelengths of 395 and 509 nm, respectively). Fluorescence signals were normalized by dividing the fluorescence counts by the OD600 reading. The nsAAs used in this study were purchased from Sigma-Aldrich (St. Louis, Mo.), Chemlmpex (Wood Dale, Ill.), and Bachem (Torrance, Calif.). Solutions of nsAAs (50 mM) were made in water or 50 mM NaOH; these stock solutions were diluted 50- or 100-fold (to 1 mM final concentration) into medium used for bacterial growth.

[2] = ATP-PPi exchange assay (amino acid activation); assay type: biochemical
Procedure: A 25 μl ATP-PPi exchange reaction contained the following components: 100 mM HEPES-KOH (pH 7.5), 30 mM KCl, 10 mM MgCl2, 2 mM DTT, 2 mM KF, 2 mM NaPPi, 5 mM ATP, […], 2 μCi/μl of […] (PerkinElmer) and varied concentrations of amino acids (0.25, 0.5, 1.25, 2.5, 5, 10, and 20 mM, respectively). The reactions were incubated at 37° C. Time points were taken at 2 minutes, 5 minutes and 10 minutes by plotting 1 μl aliquots from the reaction immediately to the PEI-cellulose plates (Merck). For each reaction, 1 μl of blank reaction mixture containing no enzymes was set as background. The reaction mixtures were separated on the plates in 1 M urea and 1 M monopotassium phosphate. The plates were then scanned in a Molecular Dynamics Storm 860 phosphorimager (Amersham Biosciences). The ratio of ATP to PPi was determined to monitor reaction progress. The kinetic constants were derived from plotting initial velocity of a series of reactions that contained varied concentrations of amino acids. The data were analyzed by GraFit 5.0 (Erithacus Software).

GFP(3TAG) [3] = assay: nsAA library screening, GFP(3TAG) fluorescence in 384 well plates; assay type: cell-based, E. coli; conditions: GFP(3TAG) production in the presence of pAcF, pAzF and 236 other nsAAs
Procedure: as §1
as §2, with “growth. […]” for “growth.”

tRNA = assay: Aminoacylation assay (tRNA charging); assay type: biochemical
Procedure: Template plasmid containing tRNA gene was purified with the plasmid maxi kit (Qiagen), and 100 μg of plasmid was digested with BstNI (New England Biolabs). The BstNI digested template DNA was purified by phenol chloroform extraction, followed by ethanol precipitation and resolved in double distilled water. A His-tagged T7 RNA polymerase was purified over column of Ni-NTA resin according to manufacturer's instructions (Qiagen). The transcription reaction [40 mM Tris (pH 8); 4 mM each of UTP, CTP, GTP, and ATP at pH 7.0; 22 mM MgCl2; 2 mM spermidine; 10 mM DTT; 6 μg pyrophosphatase (Roche Applied Science); 60 μg/mL BstNI digested DNA template, approximately 0.2 mg/ml T7 RNA polymerase] was performed in 10 ml reaction volumes for overnight at 37° C. The tRNA was purified on 12% denaturing polyacrylamide gel containing 8 M urea and TBE buffer (90 mM Tris, 90 mM boric acid, 2 mM EDTA). UV shadowing illuminates the pure tRNA band, which is excised and extracted three times with 1M sodium acetate pH 5.3 at 4° C. The tRNA extractions were then ethanol precipitated, dissolved in RNase-free distilled water, pooled, and finally desalted using a Biospin 30 column (BioRad). The ratio of aminoacylated tRNA to total tRNA was determined to monitor reaction progress.
The tRNA was refolded by heating to 100° C. for 5 min and slow cooling to room temperature. At 65° C., MgC12, was added to a final concentration of 10 mM to aid folding. A His-tagged CCA adding enzyme was purified over column of Ni-NTA resin according to manufacturer's instructions (Qiagen). 16 μM folded tRNA in 50 mM Tris (pH 8.0), 20 mM MgCl2, 5 mM DTT and 50 μM NaPPi was incubated at room temperature for 1 hour with approximately 0.2 mg/ml CCA-adding enzyme and 1.6 μCi/μl of [α-32P]-labeled ATP (PerkinElmer). The sample was phenol/chloroform extracted and then passed over a Bio-spin 30 column (Bio-Rad) to remove excess ATP.
A 20 μl aminoacylation reaction contained the following components: 50 mM HEPES-KOH (pH 7.2), 25 mM KCl, 10 mM MgCl2, 5 mM DTT, 10 mM ATP, 25 μg/ml pyrophosphatase (Roche Applied Science), 2 mM amino acids. All plateau tRNA aminoacylation levels were determined at 37° C. according to the reactions conditions described above with 500 nM enzyme, 5 μM unlabeled tRNA plus 100 nM 32P-labeled tRNA. Time points were taken at 5 minutes, 20 minutes and 60 minutes by removing 2 μl aliquots from the reaction and immediately quenching the reaction into an ice-cold 3 μl quench solution [0.66 μg/μl nuclease P1 (Sigma) in 100 mM sodium citrate (pH 5.0)]. For each reaction, 2 μl of blank reaction mixture containing no enzymes was added to the quench solution as the start time point. The nuclease P1 mixture was then incubated at room temperature for 30 min and 1 μl aliquots were spotted on PEI-cellulose plates (Merck) and developed in running buffer containing 5% acetic acid and 100 mM ammonium acetate. Radioactive spots for AMP and AA-AMP (representing free tRNA and aminoacyl-tRNA, respectively) were separated and then visualized and quantified by phosphor imaging by a Molecular Dynamics Storm 860 phosphorimager (Amersham Biosciences). The ratio of aminoacylated tRNA to total tRNA was determined to monitor reaction progress.

[4] = nsAA pAcF, relative to progenitor pAcFRS
[5] = nsAA pAzF, relative to progenitor pAcFRS
[6] = amino acid Tyrosine, relative to pAcFRS

| Molecule | higher GFP(3TAG) production compared with the progenitor enzyme (GFP(3TAG) [1]) | Km ([2]; nsAA pAcF) | kcat ([2]; nsAA pAcF) | Fold change [2, 4] | Km ([2]; nsAA pAzF) | kcat ([2]; nsAA pAzF) | Fold change [2, 5] | nsAA specificity (polyspecificity) (GFP(3TAG) [3]) | Km (tRNA; nsAA pAcF) | kcat (tRNA; nsAA pAcF) | Fold change (tRNA; [4]) | Km (tRNA; nsAA pAzF) | kcat (tRNA; nsAA pAzF) | Fold change (tRNA; [5]) | kcat ([2]; amino acid Tyrosine) | Km ([2]; amino acid Tyrosine, read-out: Km, nsAA) | Fold change [2, 6] | Km (tRNA; amino acid Tyrosine) | kcat (tRNA; amino acid Tyrosine) | Fold change (tRNA; [6]) |
| --- | --- | --- | --- | --- | --- | --- | --- | --- | --- | --- | --- | --- | --- | --- | --- | --- | --- | --- | --- | --- |
| B1 | ~8 fold | 2160 ± 720 µM | 6.84 ± 0.64 ×10^−2 s^−1 | 4.64 | 1740 ± 390 µM | 3.50 ± 0.20 ×10^−2 s^−1 | 1.37 | polyspecifity for at least pAcF, pAzF, StyA, 4IF, 4BrF, 4ClF, 4MeF, 4Cf3F, MeY, 4NO2F, 4BuF, BuY, 2NaA, PheF | 36 ± 7 µM | 1.21 ± 0.24 ×10^−3 s^−1 | 4.60 | 31 ± 9 µM | 0.65 ± 0.20 ×10^−3 s^−1 | 3.38 | – | – | – | – | – | – |
| B2 | ~1.5 fold | 8590 ± 3230 µM | 6.67 ± 1.27 ×10^−2 s^−1 | 1.14 | – | – | – | polyspecifity for at least pAcF, pAzF, StyA | 29 ± 3 µM | 0.27 ± 0.07 ×10^−3 s^−1 | 1.27 | – | – | – | – | – | – | – | – | – |
| B3 | – | – | – | – | – | – | – | – | – | – | – | – | – | – | 52.2 ± 4.1 ×10^−2 s^−1 | 76 ± 30 µM | 1007 | 23 ± 3 µM | 130 ± 22 ×10^−3 s^−1 | 774 |
| B4 | ~1.5 fold | 9170 ± 3670 µM | 6.92 ± 1.27 ×10^−2 s^−1 | 1.11 | – | – | – | polyspecifity for at least pAc.F, pAzF, StyA | 17 ± 3 µM | 0.22 ± 0.02 ×10^−3 s^−1 | 1.77 | – | – | – | – | – | – | – | – | – |
